Reference: patent US20250382588A1, “CHIMERIC AAV AND USES THEREOF” (priority 2023, published 2025)

What was measured:
substantia nigra (SN) = test: Promoter activity driving EYFP reporter expression after AAV injection into the SNr: substantia nigra; assay type: in vivo, mice; conditions: numbers of YFP-expressing neurons per animal
Source text: (§1) Brain profiles of two epigenetic marks for enhancers and promoters, monomethylation of histone H3 lysine 4 (H3K4me1) and acetylation of histone H3 lysine 27 (H3K27ac) were checked and approximately 2 kilobase-long sequences around the transcriptional start site (TSS) that have high levels of H3K4me1 and/or H3K27ac were identified in mouse brain. Homologous sequences at equivalent positions of the human genome were then cloned onto an AAV backbone, and the activity of the homologous sequences in directing reporter expression was tested in mice after injections of AAVs into the SNr (FIG. 3A-C, TABLE 3).
Region-selective promoter identification was based on the Allen Brain Atlas in situ hybridization (ISH) data (mouse.brain-map.org/). Genes highly expressed in the striatum but not in other parts of the basal ganglia were first selected as candidates. H3K4me1 and H3K27ac are known epigenetic marks for active promoters and enhancers. Thus, we identified regions with high levels of these two chromatin modification marks in mouse brain as candidate regions based on the ENCODE annotation data on the UCSC Genome Browser (genome.ucsc.edu/). To further extend the promoters' potential application in primates, the sequences of interest were PCR-amplified from human genomic DNA. Based on the above strategies, GPR88 was selected as a candidate gene. The nucleotide sequence upstream of the start codon with high H3K4me1 and H3K27ac levels was selected as the candidate promoter sequence. G88P2 (2259 bp) was cloned with the following primers: 5′-[…]-3′ (SEQ ID NO: 36), 5′-[…]-3′ (SEQ ID NO: 58). G88P3 (1395 bp) and G88P7 (896 bp) were further shortened by subcloning. […]
Images were acquired using a confocal microscope (Carl Zeiss, LSM880) and an Axiolmager.Z1 microscope with apotome (Carl Zeiss). […] Every sixth section was analyzed, and numbers of EYFP+ cells were multiplied by six to acquire the approximate total number and mean number of cells per animal. Images were processed using ImageJ (NIH, USA), and final quantifications were independently performed manually by two blinded experimenters.

[1] = test system: MSNs in the striatum (STR); test: Promoter activity driving EYFP reporter expression after AAV injection into the SNr: striatum; assay type: in vivo, mice; conditions: for labeled MSNs, reporter expression driven by promoter (FIG. 4B): mean±SEM, n=3 mice, AAV8R12 capsid; for Activity Level STR: numbers of YFP-expressing neurons per animal
Source text: as §1
G88P2 (2259 bp) was cloned with the following primers: 5′-[…] (SEQ ID NO.: 36) and 3-[…] (SEQ ID NO.: 37). To increase the payload of AAV genome, the G88P2 promoter was shorted using restriction enzymes, and two derivatives, G88P3 and G88P7, were made which were 1395-bp and 896-bp long, respectively (FIG. 3A-3C). Comparative efficiency in labeling MSNs for the two shortened promoters was observed. For mice that received viral injections into the SNr, viruses expressing EYFP driven by G88P3 and G88P7 promoters labeled 3.7±0.66×104 and 3.95±0.73×104 MSNs per mouse, respectively, compared to 1.61±0.16×104 labeled MSNs by hSyn promoter (FIG. 4B).
Region-selective promoter identification was based on the Allen Brain Atlas in situ hybridization (ISH) data (mouse.brain-map.org/). Genes highly expressed in the striatum but not in other parts of the basal ganglia were first selected as candidates. H3K4me1 and H3K27ac are known epigenetic marks for active promoters and enhancers. Thus, we identified regions with high levels of these two chromatin modification marks in mouse brain as candidate regions based on the ENCODE annotation data on the UCSC Genome Browser (genome.ucsc.edu/). To further extend the promoters' potential application in primates, the sequences of interest were PCR-amplified from human genomic DNA. Based on the above strategies, GPR88 was selected as a candidate gene. The nucleotide sequence upstream of the start codon with high H3K4me1 and H3K27ac levels was selected as the candidate promoter sequence. G88P2 (2259 bp) was cloned with the following primers: 5′-[…]-3′ (SEQ ID NO: 36), 5′-[…]-3′ (SEQ ID NO: 58). G88P3 (1395 bp) and G88P7 (896 bp) were further shortened by subcloning.
Promoters were subcloned into a pAAV-hSyn-EYFP vector derived from pAAV-hSyn-EGFP (Addgene, 50465) to replace the hSyn promoter by using appropriate restriction enzyme combinations. To generate pAAV-G88P7-DIO-tdTomato, a DIO-tdTomato cassette was subcloned into pAAV-G88P7-EYFP to replace EYFP by restriction enzyme digestion. To generate pAAV-G88P3-HA-hM3Dq, promoter G88P3 was subcloned into pAAV-hSyn-HA-hM3Dq-IRES-mCitrine (Addgene, 50463) via the EcoRI/BamHI restriction sites to replace the hSyn promoter and IRES-mCitrine was removed afterwards by restriction enzyme digestion. To generate pAAV-G88P3-HA-hM3Dq-2A-EYFP, a 2A-EYFP fragment was subcloned into pAAV-G88P3-HA-hM3Dq after hM3Dq. […]
Images were acquired using a confocal microscope (Carl Zeiss, LSM880) and an Axiolmager.Z1 microscope with apotome (Carl Zeiss). […] Every sixth section was analyzed, and numbers of EYFP+ cells were multiplied by six to acquire the approximate total number and mean number of cells per animal. […]

Molecule | Activity Level SN (substantia nigra (SN)) | labeled MSNs, reporter expression driven by promoter (FIG. 4B) [1] | Activity Level STR [1]
G88P3: 1395-bp derivative of the G88P2 promoter, SEQ ID NO: 60 (nucleic acid, listed as Homo sapiens) DNA: TCTAGATGTACCACTGACATCTGCTTTAAATCTTTTGCCCATTTCATTTTTACCCTCTAACCATTTCATTACTAAAACACAAAACAAACTCCGGAAAGGAGTTTGTTGATGAGAAAACACTGAAAGTACGATTTAAATTGAGGAATGGAGATTTTCTGTGGATAATTGTCTATGTTCCACTTTACCAAAGAAAAATGAATTTCAAGTAGTGCATAAAGTAATTCTCGTTAAAAAATGTGGGAATAAAGAGATCAGTCCTGGGTACTGGGAATATATTTATCTCACAGAAAAATCTTGCCCACAAAATGCATCAGACTGAGATGAAATACTCTAGGGTATATTAAATTTTATTCTAATATTGAAGGGAGGGAAAAAAAGGACGGAAAGAAAAATGAAACAGGATGAAAAATAAGGTGATTGGGAGAGAGAAAAGACAGAGAAACTTGTTAACGACAGGACTTTCTGAGCAAGATATTTTTCTTCCTTTTACAAGTTGGAAGCTATTGAATAATTCATGCCAAGCGTGGAAAGGCTGTCTTTTCCCTGGATGATGTATAACTAAGCAGGAGAGAGCTTCGAGTGGGTTCACCACATCAGCCACCACTCCTGCTTCTGAGCACAGGGTGCTCTCCTCTTGAGCTCAGCTTCTGCTTTTGCAGCCAAGCATTCTTGCTGCTGCTGCCTGCCTGCCCACCCGCCTGGGCTTGCAGCCCGCCACTTTACTTTCTCCAGCCCTGATACCAGCTGAGAAGTCTCCCTGCAGCTGCTAGTTCCTGCCCAGGACCATGTGTGTGGATGCTGCTTGGGAGAAGCGGGCACTTGCTCCTGGCACTGATCCCAGCTGAGTTTCTCCTGTTGATTTCTGGACCACTGATGCTGTTGCTGAGGAGGTATTTCCCGGCATCCCTCCCCCTGAGACACCGGCTAAGGACCAGCCTAAACGCAAGGTAACCTTCACCTCTTTCCCATGGGATTTTCCCCAGCTGGGATATCTCTGCTTTCTCCTGGAACTAGGTCCTCCAGCTGGCAACATATCTCTCTCTCTCTCTCTCTCTCTCTCTCTCTCTCTCTGTGTGTGTGTGTGTGTGTTGGGGGAGAAGAGGAGACTGTTTTAGGTATTGCTCTGTCCTAGGGCTTCCCCGATACCTGCTGAATCCAATGCAAAGTGGCCTTTCCCCTGGCTCTGGAGACATTTCCGAGGCAGGCACCTGTCATTTGCCACCCCCGTCCTCCTCCTCGAGCTCCCTTTCTCCCCCTCCCCCAGCCCATTATTCTGCTTCAGCCTTTTGTGTCAGTGGCAGAGGGCTGAAGGGATGTCTTTGCCCTTCTGGCAGGCAGGACAGTGTCAGGATGGACCGCGCTGCCAGAAGCCGACGCTAGCGAGGGAGGTGTGAA | + (<5 k) | 37026±6646 | ++++ (>25 k)
G88P7: 896-bp derivative of the G88P2 promoter, SEQ ID NO: 61 (nucleic acid, listed as Homo sapiens) DNA: ATGCCAAGCGTGGAAAGGCTGTCTTTTCCCTGGATGATGTATAACTAAGCAGGAGAGAGCTTCGAGTGGGTTCACCACATCAGCCACCACTCCTGCTTCTGAGCACAGGGTGCTCTCCTCTTGAGCTCAGCTTCTGCTTTTGCAGCCAAGCATTCTTGCTGCTGCTGCCTGCCTGCCCACCCGCCTGGGCTTGCAGCCCGCCACTTTACTTTCTCCAGCCCTGATACCAGCTGAGAAGTCTCCCTGCAGCTGCTAGTTCCTGCCCAGGACCATGTGTGTGGATGCTGCTTGGGAGAAGCGGGCACTTGCTCCTGGCACTGATCCCAGCTGAGTTTCTCCTGTTGATTTCTGGACCACTGATGCTGTTGCTGAGGAGGTATTTCCCGGCATCCCTCCCCCTGAGACACCGGCTAAGGACCAGCCTAAACGCAAGGTAACCTTCACCTCTTTCCCATGGGATTTTCCCCAGCTGGGATATCTCTGCTTTCTCCTGGAACTAGGTCCTCCAGCTGGCAACATATCTCTCTCTCTCTCTCTCTCTCTCTCTCTCTCTCTCTCTCTGTGTGTGTGTGTGTGTGTTGGGGGAGAAGAGGAGACTGTTTTAGGTATTGCTCTGTCCTAGGGCTTCCCCGATACCTGCTGAATCCAATGCAAAGTGGCCTTTCCCCTGGCTCTGGAGACATTTCCGAGGCAGGCACCTGTCATCTGCCACCCCCGTCCTCCTCCTCGAGCTCCCTTTCTCCCCCTCCCCCAGCCCATTATTCTGCTTCAGCCTTTTGTGTCAGTGGCAGAGGGCTGAAGGGATGTCTTTGCCCTTCTGGCAGGCAGGACAGTGTCAGGATGGACCGCGCTGCCAGAAGCCGACGCTAGCGAGGGAGGTGTGAAGAGTTGGCCAG | + (<5 k) | 39460±7281 | ++++ (>25 k)
